The supplement of paper PMC6757056
± gives the standard deviation of the averaged measurements.

B1: library; a variant is named by its letters at N, in order (parent)
chain: GCUGUCACCGGUGCUUGGUACGUUAUAUUCAGCCGGUCUGAUGAGUCUNNNNNNAGACGAAACAGC

Key:
(6R,S)-folinic acid [1] = variants of: B1; assay: normalized RNA/DNA level without ligand (relative to sTRSVctl = 100) (log10 (% of sTRSVctl)); HEK293T overexpressing SLC46A1; higher = less ribozyme self-cleavage, higher mRNA level; details: without (6R,S)-folinic acid; ligand present: no
Outline: (§1)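 RNA level was computed as RNA reads over DNA reads divided by a spiked-in non-cleaving sequence or by the top sequences, then scaled and log-transformed. Scaling was ×100 with log10, the top group was 25 sequences, and the threshold was ≥100 DNA reads. The reads came from HEK293T cells transfected at 4 µg per 6-well well with ribozyme switch library plasmids (mCherry, or eGFP in some ligand experiments). Total RNA was extracted with EDTA 72 h after transfection, with any ligand added 1 h before it.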

(6R,S)-folinic acid [2] = variants of: B1; assay: normalized RNA/DNA level with ligand (relative to sTRSVctl = 100) (log10 (% of sTRSVctl)); HEK293T overexpressing SLC46A1; ligand concentration (+) RNA-Seq: 6 mM; higher = less ribozyme self-cleavage, higher mRNA level; details: with (6R,S)-folinic acid; ligand present: yes
Outline: as §1

Variant	normalized RNA/DNA level without ligand (log10) ((6R,S)-folinic acid [1])	normalized RNA/DNA level with ligand (log10) ((6R,S)-folinic acid [2])
CACGAG	1.917 ± 0.0095	2.003 ± 0.007
AAAUCU	2.0432 ± 0.0014	2.03 ± 0.048
AAAUCA	1.996 ± 0.0046	2.02 ± 0.047
GAAACG	1.961 ± 0.0057	2 ± 0.038
AAAGCC	2.03 ± 0.013	2.05 ± 0.028
AAAGCU	2.003 ± 0.018	2.013 ± 0.013
CACCAA	1.97 ± 0.016	1.99 ± 0.022
CACCAG	1.977 ± 0.019	2 ± 0.036
CACCAC	1.998 ± 0.019	1.99 ± 0.026
GACGUC	2.065 ± 0.0072	2.02 ± 0.054
AAACGC	1.996 ± 0.006	2.01 ± 0.032
UACGAA	1.913 ± 0.0081	1.99 ± 0.03
GAAUCC	2.023 ± 0.0051	2.02 ± 0.061
GAAUCU	2.011 ± 0.0071	2.04 ± 0.037
CACAUU	2.02 ± 0.026	2.02 ± 0.059
CACAUC	2.035 ± 0.0021	2.04 ± 0.025
CACAUG	2.02 ± 0.01	2.018 ± 0.017
GAAAUC	2.044 ± 0.0097	2.027 ± 0.018
GAAAUU	2.03 ± 0.0031	2.05 ± 0.025
UAAUAA	1.931 ± 0.0048	1.985 ± 0.013
UAAUAC	1.941 ± 0.0049	1.96 ± 0.021
GACGCA	2.005 ± 0.0025	2.01 ± 0.045
GACGCG	1.9961 ± 0.00035	2.032 ± 0.015
GACGCU	2.05 ± 0.0071	2.03 ± 0.021

Variant	normalized RNA/DNA level without ligand (log10) ((6R,S)-folinic acid [1])	normalized RNA/DNA level with ligand (log10) ((6R,S)-folinic acid [2])
UAACCU	2.01 ± 0.024	2.018 ± 0.0082
UAACCC	1.991 ± 0.011	2 ± 0.035
GACGAC	1.956 ± 0.004	2.009 ± 0.018
CAAGUC	2.04 ± 0.021	2.02 ± 0.037
CAAGUA	1.9916 ± 0.0019	2.03 ± 0.045
CAAGUG	2 ± 0.028	1.98 ± 0.046
CACCGC	2.047 ± 0.0053	2.04 ± 0.034
CACCGA	2.021 ± 0.0036	2.04 ± 0.04
CACCGU	2.02 ± 0.023	2.03 ± 0.033
CACCGG	1.9715 ± 0.00014	2.01 ± 0.0069
AAACUU	2.007 ± 0.0031	2.02 ± 0.024
AAACUA	1.9744 ± 0.0006	2 ± 0.038
AAACUC	2.0456 ± 0.00044	2.03 ± 0.049
AAAGGU	1.939 ± 0.0029	2.01 ± 0.032
UAAACU	2.008 ± 0.013	2.02 ± 0.058
UAAACC	2.006 ± 0.0033	2.01 ± 0.043
GACCAC	2.001 ± 0.012	2.002 ± 0.0054
GACCAG	2.004 ± 0.013	2.022 ± 0.012
GACCAU	2.017 ± 0.0083	2.01 ± 0.027
UAACUC	2.046 ± 0.0055	2.03 ± 0.045
AACCUC	2.1092 ± 0.0019	2.07 ± 0.052
AACCUG	1.972 ± 0.0045	2.02 ± 0.039
GACCUU	2.079 ± 0.013	2.04 ± 0.028
GACCUC	2.06 ± 0.0084	2.044 ± 0.0024

Variant	normalized RNA/DNA level without ligand (log10) ((6R,S)-folinic acid [1])	normalized RNA/DNA level with ligand (log10) ((6R,S)-folinic acid [2])
GACCUG	2.06 ± 0.023	2.03 ± 0.027
GACCUA	2.05 ± 0.0099	2.05 ± 0.035
GAAUGC	1.943 ± 0.012	2 ± 0.036
GAAUGU	1.988 ± 0.015	2.01 ± 0.035
AAAAGA	1.957 ± 0.0042	2.02 ± 0.021
AAAAGU	1.94 ± 0.013	2 ± 0.041
UACGUA	1.918 ± 0.0029	1.98 ± 0.037
UACGUC	2.07 ± 0.019	2.06 ± 0.066
GACAAU	1.967 ± 0.012	1.99 ± 0.045
GACAAG	1.9442 ± 0.00015	2.008 ± 0.02
CAACAG	1.976 ± 0.00034	2.01 ± 0.062
CAACAU	1.978 ± 0.0086	2.02 ± 0.057
CAACAA	1.966 ± 0.015	1.99 ± 0.032
CAACAC	2.0222 ± 0.00082	2.014 ± 0.019
CACGCU	2.042 ± 0.0097	2.034 ± 0.011
CACGCG	2 ± 0.023	1.997 ± 0.0065
CACGCC	2.041 ± 0.011	1.99 ± 0.047
CAACGU	2.024 ± 0.0058	2.037 ± 0.019
CAACGC	2.025 ± 0.011	2.02 ± 0.038
CAACGG	1.9202 ± 0.00028	1.976 ± 0.0039
GACCCA	2.018 ± 0.0089	2 ± 0.04
GACCCC	2.017 ± 0.0088	2 ± 0.045
GACCCG	2.031 ± 0.0022	2 ± 0.06
UAACAU	1.956 ± 0.016	2 ± 0.023

Variant	normalized RNA/DNA level without ligand (log10) ((6R,S)-folinic acid [1])	normalized RNA/DNA level with ligand (log10) ((6R,S)-folinic acid [2])
CAAAUG	2.007 ± 0.0091	2.007 ± 0.017
CAAAUU	2.011 ± 0.0089	2.03 ± 0.027
CAAAUC	2.05 ± 0.026	2.02 ± 0.047
CAAAUA	1.95 ± 0.01	1.99 ± 0.025
CACAAC	2.004 ± 0.016	1.99 ± 0.05
CACAAG	1.961 ± 0.006	2.013 ± 0.02
CACAAU	1.954 ± 0.018	1.99 ± 0.057
AACGUC	2.066 ± 0.014	2.04 ± 0.021
AAACCC	2.048 ± 0.0094	2.032 ± 0.0089
AAACCU	2.0232 ± 0.0015	2.03 ± 0.031
AAACCG	1.97 ± 0.0043	2 ± 0.029
UACAGC	1.991 ± 0.0074	2.02 ± 0.05
AAAACC	2.0338 ± 0.0018	2.02 ± 0.048
GAAUAG	1.9357 ± 0.0015	2.01 ± 0.042
GAAUAU	2.038 ± 0.015	2.02 ± 0.051
CAAUCC	2.023 ± 0.0031	2.02 ± 0.049
CAAUCU	2.045 ± 0.0088	2.05 ± 0.028
CAAUCG	2.024 ± 0.012	2.02 ± 0.0061
CAAUCA	2.001 ± 0.0045	2.02 ± 0.033
AACCCG	1.99 ± 0.0042	2.02 ± 0.044
AACCCU	2.047 ± 0.013	2.04 ± 0.036
AACCCA	2.033 ± 0.016	2.03 ± 0.022
AACGGG	1.892 ± 0.0076	2.01 ± 0.032
AACGGC	2.058 ± 0.0083	2.03 ± 0.027

Variant	normalized RNA/DNA level without ligand (log10) ((6R,S)-folinic acid [1])	normalized RNA/DNA level with ligand (log10) ((6R,S)-folinic acid [2])
AACGGU	1.96 ± 0.022	2 ± 0.021
AACGGA	1.969 ± 0.019	2.02 ± 0.028
AACGAC	2.017 ± 0.013	1.991 ± 0.019
AACGAU	1.959 ± 0.018	2 ± 0.035
GACAGC	2.002 ± 0.0097	2.03 ± 0.046
GACAGU	1.99 ± 0.025	2 ± 0.053
AACAGC	2.0178 ± 0.00095	2.02 ± 0.022
CACGUG	2.03 ± 0.022	2.05 ± 0.05
CACGUC	2.023 ± 0.0096	1.987 ± 0.013
CACGUU	2.0092 ± 0.00093	1.99 ± 0.038
AACCAC	2.007 ± 0.0059	1.963 ± 0.015
CAACUG	2.029 ± 0.015	2.021 ± 0.016
CAACUA	2.01 ± 0.023	2.01 ± 0.035
CAACUU	2.039 ± 0.012	2.03 ± 0.052
CAACUC	2.06 ± 0.015	2.06 ± 0.024
AACGCG	1.909 ± 0.012	2.03 ± 0.026
CACCUA	2.024 ± 0.005	2.06 ± 0.038
CACCUG	2.04 ± 0.023	2.02 ± 0.022
CACCUU	2.027 ± 0.0059	2.01 ± 0.025
CACCUC	2.02 ± 0.021	1.99 ± 0.027
